{"source": "the RNAGym collection of RNA variant scans (doi:10.7554/elife.80360)", "parents": {"B1": {"name": "HDV Ribozyme (parent)", "chain": "GGCCGGCAUGGUCCCAGCCUCCUCGCUGGCGCCGGCUGGGCAACAUUCCGAGGGGACCGUCCCCUCGGUAAUGGCGAAUGGGACCCA"}}, "data": [{"variants_of": "B1", "assay": "self-cleavage, relative activity (ratio to wild type); higher = more cleavage; co-transcriptional", "values": [{"variant": "A71G U79C", "self-cleavage": 0.339}, {"variant": "G80C C84G", "self-cleavage": 0.163}, {"variant": "G80C C84U", "self-cleavage": 0.16}, {"variant": "A78G", "self-cleavage": 0.75}, {"variant": "A78C", "self-cleavage": 0.164}, {"variant": "A78U", "self-cleavage": 0.316}, {"variant": "C75U G82A", "self-cleavage": 0.202}, {"variant": "U79C G82C", "self-cleavage": 0.222}, {"variant": "U79C G82U", "self-cleavage": 0.256}, {"variant": "A83U C85U", "self-cleavage": 0.446}, {"variant": "G73U U79G", "self-cleavage": 0.374}, {"variant": "G81C", "self-cleavage": 0.268}, {"variant": "G81A", "self-cleavage": 0.403}, {"variant": "G81U", "self-cleavage": 0.365}, {"variant": "G74C G80U", "self-cleavage": 0.127}, {"variant": "U72C A78U", "self-cleavage": 0.249}, {"variant": "G76U A77U", "self-cleavage": 0.868}, {"variant": "G82C C86A", "self-cleavage": 0.527}, {"variant": "G80A A87G", "self-cleavage": 0.424}, {"variant": "U72C A77G", "self-cleavage": 0.229}, {"variant": "U72C A77U", "self-cleavage": 0.285}, {"variant": "G74C A77U", "self-cleavage": 0.104}, {"variant": "G74U A77U", "self-cleavage": 0.346}, {"variant": "G81C C85U", "self-cleavage": 0.244}, {"variant": "U79A C85A", "self-cleavage": 0.724}, {"variant": "A78U G81C", "self-cleavage": 0.213}, {"variant": "U79A G81A", "self-cleavage": 0.0773}, {"variant": "G73U A87G", "self-cleavage": 0.452}, {"variant": "U72A G73C", "self-cleavage": 0.628}, {"variant": "G76A C84G", "self-cleavage": 0.939}, {"variant": "G76A C84U", "self-cleavage": 1.05}, {"variant": "U72G U79G", "self-cleavage": 0.332}, {"variant": "G80U A83G", "self-cleavage": 0.253}, {"variant": "G80U A83C", "self-cleavage": 0.254}, {"variant": "G73U G80C", "self-cleavage": 0.2}, {"variant": "G73U G80U", "self-cleavage": 0.124}, {"variant": "U72G G82C", "self-cleavage": 0.453}, {"variant": "A71U C85A", "self-cleavage": 1.08}, {"variant": "A83C A87U", "self-cleavage": 0.346}, {"variant": "A78C A83G", "self-cleavage": 0.179}, {"variant": "G76C G80U", "self-cleavage": 0.256}, {"variant": "G74A A87C", "self-cleavage": 0.583}, {"variant": "G74A A87U", "self-cleavage": 0.628}, {"variant": "C75U C85U", "self-cleavage": 0.138}, {"variant": "C75U C85A", "self-cleavage": 0.0959}, {"variant": "C75U C85G", "self-cleavage": 0.122}, {"variant": "G74A A77G", "self-cleavage": 0.332}, {"variant": "G74U C75G", "self-cleavage": 0.13}, {"variant": "U72A U79A", "self-cleavage": 0.536}, {"variant": "U72A U79G", "self-cleavage": 0.361}, {"variant": "A77U C84U", "self-cleavage": 0.489}, {"variant": "A83C C84U", "self-cleavage": 0.582}, {"variant": "U72G G80U", "self-cleavage": 0.0963}, {"variant": "C75U C86U", "self-cleavage": 0.0563}, {"variant": "C75A G82C", "self-cleavage": 0.188}, {"variant": "C75A G82U", "self-cleavage": 0.101}, {"variant": "U72C C75G", "self-cleavage": 0.166}, {"variant": "U79C C85G", "self-cleavage": 0.287}, {"variant": "U79C C85A", "self-cleavage": 0.389}, {"variant": "A71U G76U", "self-cleavage": 1.17}, {"variant": "A78G U79C", "self-cleavage": 0.225}, {"variant": "C75G A87C", "self-cleavage": 0.073}, {"variant": "U72G C86A", "self-cleavage": 1.16}, {"variant": "U72G C86G", "self-cleavage": 0.6}, {"variant": "G73C G80C", "self-cleavage": 0.109}, {"variant": "G76A U79C", "self-cleavage": 0.964}, {"variant": "G82U C86U", "self-cleavage": 0.554}, {"variant": "U79C C84A", "self-cleavage": 0.462}, {"variant": "C75G A77U", "self-cleavage": 0.213}, {"variant": "C75G A77C", "self-cleavage": 0.128}, {"variant": "C75G A77G", "self-cleavage": 0.0755}, {"variant": "A71U C75A", "self-cleavage": 0.0739}, {"variant": "C85G C86G", "self-cleavage": 0.905}, {"variant": "G76A A87U", "self-cleavage": 1.08}, {"variant": "G82A C84U", "self-cleavage": 0.215}, {"variant": "G82A C84G", "self-cleavage": 0.232}, {"variant": "G74C A83G", "self-cleavage": 0.104}, {"variant": "A71G G82C", "self-cleavage": 0.151}, {"variant": "A71U G73U", "self-cleavage": 0.237}, {"variant": "G81A C86A", "self-cleavage": 0.805}, {"variant": "U72C G80C", "self-cleavage": 0.19}, {"variant": "G76C G81U", "self-cleavage": 0.475}, {"variant": "U79A A83U", "self-cleavage": 0.256}, {"variant": "A77U A78C", "self-cleavage": 0.332}]}]}
